Assay results as given in publication PMC3025578.

T1: OkrAI (Oceanospirillum kriegii, UniProt E2JKI3 1-194)
T1 sequence: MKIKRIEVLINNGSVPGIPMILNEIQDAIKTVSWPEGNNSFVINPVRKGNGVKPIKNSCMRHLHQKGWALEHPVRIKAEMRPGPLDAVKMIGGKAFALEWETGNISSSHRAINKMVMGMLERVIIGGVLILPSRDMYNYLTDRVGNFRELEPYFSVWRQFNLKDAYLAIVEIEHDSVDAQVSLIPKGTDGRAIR

T2: BamHI (Bacillus amyloliquefaciens, UniProt P23940 1-213)
T2 sequence: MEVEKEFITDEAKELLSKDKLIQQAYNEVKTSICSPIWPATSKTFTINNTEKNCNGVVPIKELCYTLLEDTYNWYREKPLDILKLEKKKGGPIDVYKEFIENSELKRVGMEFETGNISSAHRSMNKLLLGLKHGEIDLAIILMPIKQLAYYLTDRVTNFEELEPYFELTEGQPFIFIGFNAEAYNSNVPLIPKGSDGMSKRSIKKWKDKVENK

B1: palindromic 12-mer (dsDNA)
DNA 1: TATGGATCCATA
DNA 2: TATGGATCCATA
B2: 20-mer cognate duplex (dsDNA)
DNA 1: TATGAGCGGATCCTTACGAG
DNA 2: CTCGTAAGGATCCGCTCATA

Columns and labels:
[1] = target: T1, OkrAI; test: X-ray crystallography
[2] = target: T1, OkrAI; test: fluorescence anisotropy
[3] = target: T2, BamHI; test: fluorescence anisotropy

Binder	binding result [1]	Kd [2] [nM]	Kd [3] [nM]
B1	binds		
B2		12.9	8.3
